This note sets out measurements from article PMC9741242, “Insights into the Structure of the Highly Glycosylated Ffase from Rhodotorula dairenensis Enhance Its Biotechnological Potential” (International Journal of Molecular Sciences, 2022).

Assay [1] concerns the target D188A-RdINVΔ21–139, truncated inactivated mutant of Rhodotorula dairenensis β-fructofuranosidase (Rhodotorula dairenensis CECT 1416). Kind of assay: crystal structure; D188A-RdINVΔ21–139, deglycosylated, complexes with fructose, sucrose or raffinose; PEG 3350, Bis-Tris pH 5.5; space group P2(1), four molecules in the asymmetric unit.
The target of assay [2] is β-fructofuranosidase from Rhodotorula dairenensis (RdINV), wild type (Rhodotorula dairenensis CECT 1416). Kind of assay: crystal structure; wild-type RdINV, deglycosylated; 25% PEG 3350, 0.2 M ammonium acetate, 0.1 M Bis-Tris pH 5.5; space group C222(1), two molecules in the asymmetric unit.

As to “D188A-RdINVΔ21–139, truncated inactivated mutant of Rhodotorula dairenensis β-fructofuranosidase (enzyme)”, the stoichiometry N – broadly, the number of molecules, sites or subunits per partner or assembly – in assay [1] came out at 2. “β-fructofuranosidase from Rhodotorula dairenensis (RdINV), wild type (enzyme)” displayed a stoichiometry N in assay [2] of 2.
